kcat data for one substance are collected here from publication PMC11933065, “Characterization of FosA13, a novel fosfomycin glutathione transferase identified in a Morganella morganii isolate from poultry” (Frontiers in Cellular and Infection Microbiology, 2025).

Usually kcat stands for the maximal rate divided by the concentration of active sites.

For the series, the system named is C[C@@H]1O[C@@H]1P(=O)(O)O. As to the kind of experiment: HPLC, initial rates, Michaelis-Menten fit. In kind it is biochemical, Morganella morganii. The note with it: 10 mM GSH, 250 µM MnCl2, 100 mM KCl, 100 mM Tris-HCl, 37 °C, fosfomycin 0-800 µM, printed unit µM conflicts with printed kcat/Km (1.50 × 10^4 M^-1 s^-1), which implies mM.

Take “FosA13 (Morganella morganii subsp. morganii KT)”: the kcat was determined as 6.43 ± 0.04 s⁻¹.
